Starred links: 1 amine or outer side, 2 acyl side, 3 side chain; linkers in the order of their positions; H or OH if unused. No end group written: not given here. SO3H = sulfated tyrosine (Y*), O=S(=O)(O)[*:2]
What was measured:
Conditions in all cases: remark: other sources report otherwise
[1] = molecular target: Y1 scFv; assay: competition FACS, peptide 2.5 µM preincubated with Y1-scFv, washed platelets
[2] = molecular target: Y1 scFv; assay: competition FACS, peptide 200 µM preincubated with Y1-scFv, washed platelets
[3] = molecular target: Y1 scFv; assay: competition ELISA, peptide 25 µM preincubated with Y1 (0.25 µg/well), glycocalicin-coated plate
[4] = molecular target: Y1 scFv; assay: competition ELISA, peptide 0.5 µM preincubated with Y1 (0.25 µg/well), glycocalicin-coated plate
[5] = molecular target: Y1 scFv; assay: competition ELISA, peptide 2.5 µM preincubated with Y1 (0.25 µg/well), glycocalicin-coated plate
[6] = molecular target: Y1 scFv; assay: competition ELISA, peptide 200 µM preincubated with Y1 (0.25 µg/well), glycocalicin-coated plate

Sequence of Y1 scFv (chain, as listed by the source): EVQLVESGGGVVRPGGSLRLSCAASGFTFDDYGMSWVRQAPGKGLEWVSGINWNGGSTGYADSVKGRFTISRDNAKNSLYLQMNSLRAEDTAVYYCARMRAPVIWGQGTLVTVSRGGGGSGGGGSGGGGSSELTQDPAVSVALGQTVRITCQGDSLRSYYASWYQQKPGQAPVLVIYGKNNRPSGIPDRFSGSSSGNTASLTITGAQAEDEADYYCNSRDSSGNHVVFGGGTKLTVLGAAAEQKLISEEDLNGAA

Residual Binding of Y1 (% of baseline) (Geo Mean) [1]: 41%
Residual Binding of Y1 (% of baseline) (Geo Mean) [2]: 5%
Residual Binding of Y1 (% of baseline) [3]: 25%
Residual Binding of Y1 (% of baseline) [4]: 89%
Residual Binding of Y1 (% of baseline) [5]: 62%
Residual Binding of Y1 (% of baseline) [6]: 0%
Binder: GDEGDTDLY(SO3H)DY(SO3H)Y(SO3H)PEEDTE [P-1-S peptide (residues 268-285 of GPIbα, sulfated)]

From patent publication US20040001822A1, “Y1-isolated molecules comprising epitopes containing sulfated moieties, antibodies to such epitopes, and uses thereof” (priority 2000, published 2004)
